# Test results taken from PMC3544819, “Pax6 Interactions with Chromatin and Identification of Its Novel Direct Target Genes in Lens and Forebrain”.
# B1: Kif1b site 2 (dsDNA)
# DNA 1: TAGGAAGCTTTCTGCTGGATACACTCATGCCTGAGCGTG
# DNA 2: CACGCTCAGGCATGAGTGTATCCAGCAGAAAGCTTCCTA
# B2: Kif1b site 1 (dsDNA)
# DNA 1: ATGACCAATAGTAAAGCGTGGCTGGAAGAGGGG
# DNA 2: CCCCTCTTCCAGCCACGCTTTACTATTGGTCAT
# Target: Pax6 PD/HD (UniProt P63015 4-269)
# Assay: EMSA; not given in the material
# Settings: protein: recombinant; blunt
# Chain of Pax6 PD/HD (P63015 4-269): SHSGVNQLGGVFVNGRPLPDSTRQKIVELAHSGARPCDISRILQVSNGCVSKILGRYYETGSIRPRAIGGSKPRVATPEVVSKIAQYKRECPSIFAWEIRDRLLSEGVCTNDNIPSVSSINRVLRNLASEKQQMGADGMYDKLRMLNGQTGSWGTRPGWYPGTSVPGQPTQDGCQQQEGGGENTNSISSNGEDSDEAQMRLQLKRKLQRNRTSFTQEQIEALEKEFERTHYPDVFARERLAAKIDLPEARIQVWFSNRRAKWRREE
row,Binder,binding result
1,B1,binds
2,B2,binds
